Assay results from patent publication US20220017612A1 (TILOS THERAPEUTICS, published 2022).

T1: fusion protein of a human IgG1 Fc domain and human LAP-TGFβ2 (human, UniProt P61812 21-414)
T1 construct: also called Fc-huB2; human LAP-TGFβ2-Fc
T1 sequence: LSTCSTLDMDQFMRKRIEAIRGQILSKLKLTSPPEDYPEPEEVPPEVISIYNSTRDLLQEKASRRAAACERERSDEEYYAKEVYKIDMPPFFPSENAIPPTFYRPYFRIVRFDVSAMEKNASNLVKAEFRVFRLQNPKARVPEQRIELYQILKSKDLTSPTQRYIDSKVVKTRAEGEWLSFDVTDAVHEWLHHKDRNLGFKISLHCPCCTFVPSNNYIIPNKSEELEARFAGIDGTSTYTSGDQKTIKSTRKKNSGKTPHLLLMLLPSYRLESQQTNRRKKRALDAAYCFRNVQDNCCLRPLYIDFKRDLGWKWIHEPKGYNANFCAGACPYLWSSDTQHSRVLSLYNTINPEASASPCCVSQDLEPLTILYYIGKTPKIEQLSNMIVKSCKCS

T2: human LAP-TGFβ2 overexpressed on HT1080 cells (human, UniProt P61812 21-414)
T2 construct: also called HT1080-huB2
T2 sequence: T1 sequence

B1: 20E6_H0.2aL1_hIgG1 (antibody)
heavy: not shown
light: DIQMTQSPSSLSASVGDRVTITCRASQDITNYLNWYQQKPGKAVKLLIYYTSRLHSGVPSRFSGSGSGTDYTLTISSLQPEDFATYFCQQGDTLPWTFGQGTKLEIKRTVAAPSVFIFPPSDEQLKSGTASVVCLLNNFYPREAKVQWKVDNALQSGNSQESVTEQDSKDSTYSLSSTLTLSKADYEKHKVYACEVTHQGLSSPVTKSFNRGEC
notes: also called 20E6_H0.2aL1_IgG1; humanized 20E6
B2: 22F9_hIgG1 (antibody, V domains shown)
VH: QVQLQQPGAELVKPGASVKLSCKASGYTFTSYWMHWVKQRPGQGLEWIGMIHPNSGSTNYNEKFKSKATLTVDKSSSTAYMQLSSLTSEDSAVYYCAYYDYDGFFDVWGTGTTVTVSS
VL: DIVLTQSPASLDVSLGQRATISCRASKSVSTSGYSYMHWYQQKSGQPPKLLIYLASNLESGVPARFSGSGSGTHFTLNIHPVEEEDAATYYCQHSRELPYTFGGGTKLEIK

Experiments:
[1] = target: T1, fusion protein of a human IgG1 Fc …; assay: bio-layer interferometry, biotinylated antibody on streptavidin tip, Fc-huB2 in solution
Method: The 20E6_H0.2aL1_IgG1 antibody was biotinylated using EZ-Link SulfoNHS-LC-Biotin (ThermoFisher). A streptavidin-functionalized tip was equilibrated in binding buffer (10 mM sodium phosphate, 150 mM sodium chloride, 1% (w/v) bovine serum albumin, 0.05% (w/v) sodium azide, pH 7.4) and dipped in a 10 μg/mL solution of biotinylated anti-LAP in binding buffer for 30 seconds to load the tip with antibody. The antibody-loaded tip was then washed in binding buffer and placed in a solution containing 0-24 nM of a fusion protein having a human IgG1 Fc domain fused to either human LAP-TGFβ1, human LAP-TGFβ2 or human LAP-TGFβ3. The antigen was allowed to bind to antibody for 5 minutes (association phase), and then the tip was moved to binding buffer (dissociation phase). The association and dissociation phases were fit to a 2:1 heterogenous ligand binding model to determine the binding rate constants. As shown in FIG. 21A and Table 17, 20E6_H0.2aL1_IgG1 bound with sub-nanomolar affinity to human LAP-TGFβ1, but not to human LAP-TGFβ2 (FIG. 21B) or LAP-TGFβ3 (FIG. 21C).

[2] = target: T3, fusion protein of a human IgG1 Fc domain and human LAP-TGFβ1 (human, UniProt P01137 30-390); assay: BLI, 2:1 model, component 2
T3 construct: printed both as Fc-huB1 and LAP-TGFβ-Fc; also called Fc-huB1; Fc-human LAP
Method: A streptavidin-functionalized tip was equilibrated in binding buffer (10 mM sodium phosphate, 150 mM sodium chloride, 1% (w/v) bovine serum albumin, 0.05% (w/v) sodium azide, pH 7.4) and dipped in a 5 μg/mL solution of biotinylated antibody (i.e., 20E6_H0.2aL1_hIgG1, murine 16F4, or MHG8, a GARP-specific murine IgG2a described in Lienart et al. Science 2018; 362:952-956) in binding buffer for 30 seconds to load the tip with antibody. The antibody-loaded tip was then washed in binding buffer and placed in a solution containing 0-24 nM of a fusion protein containing a human IgG1 Fc domain fused to either human LAP-TGFβ1, the soluble GARP-LAP-TGFβ1 complex, or the soluble ECR3E-LAP-TGFβ1 complex. The antigen was allowed to bind to antibody for 5 minutes (association phase), and then the tip was moved to binding buffer (dissociation phase). The binding and dissociation data for 16F4 and MHG8 were well-fit by a 1:1 binding model. The association and dissociation phases for 20E6_H0.2aL1_hIgG1 antibody were fit to a 2:1 heterogenous ligand binding model to determine the binding rate constants.
As shown in FIG. 24 and Table 21, the 20E6_H0.2aL1_hIgG1 antibody bound to free LAP-TGFβ1 and the soluble GARP-LAP-TGFβ1 complex with nanomolar affinity, but not to the ECR3E-LAP-TGFβ1 complex. As expected, the anti-GARP antibody (MHG8) bound to the GARP-LAP-TGFβ1 complex, but not to free LAP-TGFβ1 or the ECR3E-LAP-TGFβ1 complex. 16F4 bound tightly to all three constructs.

[3] = target: T3, fusion protein of a human IgG1 Fc …; assay: BLI, signal change on binding
Method: (§1) Binding to human TGFβ1 of a subset of candidates was also tested by bio-layer interferometry (Octet). A streptavidin coated tip was equilibrated for 60 seconds in binding buffer (10 mM sodium phosphate, 150 mM sodium chloride, 1% bovine serum albumin, 0.05% sodium azide). The tip was then dipped in 10 μg/mL biotinylated antibody in binding buffer. After 15 seconds, the tip was washed in binding buffer for 60 seconds, and then dipped in 0-24 nM Fc-human LAP. Analyte association was measured for 5 minutes. The tip was transferred to binding buffer alone, and analyte dissociation was measured for 5 minutes. The association and dissociation data were fit to a 1:1 binding model.

[4] = target: T3, fusion protein of a human IgG1 Fc …; assay: BLI, antibody on tip, 1:1 model
Method: as §1

[5] = target: T2, human LAP-TGFβ2 overexpressed on HT1080 …; assay: flow cytometry titration, HT1080-huB2 cells
Method: This Example describes the binding of anti-LAP antibodies to LAP-TGFβ isoforms and LAP-TGFβ variants. In addition to antibodies 28G11_hIgG1, 22F9_hIgG1, and 20E6_hIgG1, anti-LAP antibodies 17G8_hIgG1, 24E3_hIgG1, and 2C9_(hyb) were also tested in this experiment. Briefly, 4×10⁵ each of (a) HT1080 cells, (b) HT1080 cells overexpressing human LAP-TGFβ1, (c) HT1080 cells overexpressing human LAP-TGFβ2, (d) HT1080 cells overexpressing human LAP-TGFβ3, (e) HT1080 cells overexpressing murine LAP-TGFβ1, (f) P3U1 cells, (g) P3U1 cells overexpressing LAP-TGFβ1 and GARP, and (h) P3U1 cells overexpressing LAP-TGFβ1 and LRRC33 were cultured in 96-well plates. The plates were centrifuged for 5 min at 1,500 rpm, liquid was removed, and cells were resuspended with 200 μL FACS buffer. The plates were centrifuged again, diluted primary antibody was added to each well, and the plates were incubated on ice for 20 minutes, followed by centrifugation. The cells were resuspended in 200 μL FACS buffer, centrifuged again, and resuspended in 50 μL diluted secondary antibody (Alexa647-anti-Human IgG or APC-anti-Mouse IgG). The plates were incubated on ice for 20 minutes in the dark, washed twice with 200 μL FACS buffer, and cells from each well (in 200 μL FACS buffer) were read on the Attune NXT instrument.

T3 sequence (P01137 30-390 limits assumed): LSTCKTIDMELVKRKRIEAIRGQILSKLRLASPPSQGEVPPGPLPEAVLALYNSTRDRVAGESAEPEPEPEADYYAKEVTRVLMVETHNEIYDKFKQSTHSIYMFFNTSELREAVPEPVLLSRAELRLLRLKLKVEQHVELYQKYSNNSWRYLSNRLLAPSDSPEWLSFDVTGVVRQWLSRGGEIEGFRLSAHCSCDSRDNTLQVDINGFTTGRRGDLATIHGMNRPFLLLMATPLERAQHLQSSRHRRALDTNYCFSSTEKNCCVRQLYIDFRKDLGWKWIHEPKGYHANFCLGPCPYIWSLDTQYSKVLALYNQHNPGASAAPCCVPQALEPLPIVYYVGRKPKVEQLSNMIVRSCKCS

Row | Binder | binding result [1] | Kd [2] [nM] | koff [2] [s⁻¹] | kon [2] [M⁻¹ s⁻¹] | Binding (nm) [3] [nm] | Kd [4] [nM] | koff [4] [s⁻¹] | kon [4] [M⁻¹ s⁻¹] | binding result [5]
1 | B1 | no binding (tested: 24 nM) | 0.96 | 0.00092 | 960000 |  |  |  |  | 
2 | B2 |  |  |  |  | 0.27 | 3.74 | 0.00168 | 450000 | no binding (tested: about 800 ng/well)
